For test [1], the target named is g12 mutant (Env protein) of the HIV-1 isolate 133 (HIV-1 primary isolate 133). Put plainly: capture ELISA on lysates and supernatants, F105 1 µg/ml. (In general: An ELISA detects its analyte on a solid surface through an enzyme-linked reagent.)
The target is the same in test [2]. Put plainly: capture ELISA, 17b 1 µg/ml.

Drawing on US20050065320A1, this text covers signal relative to the native protein for two substances.

Take F105 human monoclonal antibody (NIBSC): the signal relative to the native protein in test [1] was below 4.5 times.
The substance 17b human monoclonal antibody gave a signal relative to the native protein in test [2] of 3 times.
